Source: article PMC4414177 (2015)

Target: GSTP1-1 (Homo sapiens, UniProt P09211)
Assay: ELISA

| Binder | Kd [nM] |
| --- | --- |
| TRAF2 CTD (protein, 1 mM GSH+8 μM MC3181) DQDKIEALSSKVQQLERSIGLKDLAMADLEQKVLEMEASTYDGVFIWKISDFARKRQEAVAGRIPAIFSPAFYTSRYGYKMCLRIYLNGDGTGRGTHLSLFFVVMKGPNDALLRWPFNQKVTLMLLDQNNREHVIDAFRPDVTSSSFQRPVNDMNIASGCPLFCPVSKMEAKNSYVRDDAIFIKAIVDLTGL | > 10000 |
| TRAF2 CTD (protein, 1 mM GSH) DQDKIEALSSKVQQLERSIGLKDLAMADLEQKVLEMEASTYDGVFIWKISDFARKRQEAVAGRIPAIFSPAFYTSRYGYKMCLRIYLNGDGTGRGTHLSLFFVVMKGPNDALLRWPFNQKVTLMLLDQNNREHVIDAFRPDVTSSSFQRPVNDMNIASGCPLFCPVSKMEAKNSYVRDDAIFIKAIVDLTGL | 3000 |
| TRAF2 CTD (protein) DQDKIEALSSKVQQLERSIGLKDLAMADLEQKVLEMEASTYDGVFIWKISDFARKRQEAVAGRIPAIFSPAFYTSRYGYKMCLRIYLNGDGTGRGTHLSLFFVVMKGPNDALLRWPFNQKVTLMLLDQNNREHVIDAFRPDVTSSSFQRPVNDMNIASGCPLFCPVSKMEAKNSYVRDDAIFIKAIVDLTGL | 280 |
| JNK1α2 (protein, 1 mM GSH) MSRSKRDNNFYSVEIGDSTFTVLKRYQNLKPIGSGAQGIVCAAYDAILERNVAIKKLSRPFQNQTHAKRAYRELVLMKCVNHKNIIGLLNVFTPQKSLEEFQDVYIVMELMDANLCQVIQMELDHERMSYLLYQMLCGIKHLHSAGIIHRDLKPSNIVVKSDCTLKILDFGLARTAGTSFMMTPYVVTRYYRAPEVILGMGYKENVDLWSVGCIMGEMVCHKILFPGRDYIDQWNKVIEQLGTPCPEFMKKLQPTVRTYVENRPKYAGYSFEKLFPDVLFPADSEHNKLKASQARDLLSKMLVIDASKRISVDEALQHPYINVWYDPSEAEAPPPKIPDKQLDEREHTIEEWKELIYKEVMDLEERTKNGVIRGQPSPLGAAVINGSQHPSSSSSVNDVSSMSTDPTLASDTDSSLEAAAGPLGCCR | 2200 |
| JNK1α2 (protein, 1 mM GSH+8 μM MC3181) MSRSKRDNNFYSVEIGDSTFTVLKRYQNLKPIGSGAQGIVCAAYDAILERNVAIKKLSRPFQNQTHAKRAYRELVLMKCVNHKNIIGLLNVFTPQKSLEEFQDVYIVMELMDANLCQVIQMELDHERMSYLLYQMLCGIKHLHSAGIIHRDLKPSNIVVKSDCTLKILDFGLARTAGTSFMMTPYVVTRYYRAPEVILGMGYKENVDLWSVGCIMGEMVCHKILFPGRDYIDQWNKVIEQLGTPCPEFMKKLQPTVRTYVENRPKYAGYSFEKLFPDVLFPADSEHNKLKASQARDLLSKMLVIDASKRISVDEALQHPYINVWYDPSEAEAPPPKIPDKQLDEREHTIEEWKELIYKEVMDLEERTKNGVIRGQPSPLGAAVINGSQHPSSSSSVNDVSSMSTDPTLASDTDSSLEAAAGPLGCCR | > 5000 |
| JNK1α2 (protein) MSRSKRDNNFYSVEIGDSTFTVLKRYQNLKPIGSGAQGIVCAAYDAILERNVAIKKLSRPFQNQTHAKRAYRELVLMKCVNHKNIIGLLNVFTPQKSLEEFQDVYIVMELMDANLCQVIQMELDHERMSYLLYQMLCGIKHLHSAGIIHRDLKPSNIVVKSDCTLKILDFGLARTAGTSFMMTPYVVTRYYRAPEVILGMGYKENVDLWSVGCIMGEMVCHKILFPGRDYIDQWNKVIEQLGTPCPEFMKKLQPTVRTYVENRPKYAGYSFEKLFPDVLFPADSEHNKLKASQARDLLSKMLVIDASKRISVDEALQHPYINVWYDPSEAEAPPPKIPDKQLDEREHTIEEWKELIYKEVMDLEERTKNGVIRGQPSPLGAAVINGSQHPSSSSSVNDVSSMSTDPTLASDTDSSLEAAAGPLGCCR | 420 |
